PMC3950707

Legend:
LexA [1] = test: single-molecule FRET (smTIRF), koff/kon; conditions: smTIRF and PIFE on DNA: 10 mM Tris-HCl pH 8.0, 130 mM NaCl, 10% glycerol, 0.005% Tween20, 1% BME (0.1 mg/ml BSA in smTIRF and LexA PIFE), nucleosome smTIRF and …
[2] = system: Gal4(1-147) (Saccharomyces cerevisiae); test: ensemble PIFE; conditions: 100 pM DNA (titration-limited), Hill 1.5; legend error 5; internal aminoC6dT in both primers; smTIRF and PIFE on DNA: 10 mM Tris-HCl pH 8.0, 130 mM NaCl, 10% glycerol, 0.005% Tween20, 1% BME (0.1 mg/ml BSA in smTIRF and LexA PIFE); nucleosome smTIRF and …
[3] = system: Gal4(1-147) (Saccharomyces cerevisiae); test: EMSA; conditions: 200 pM DNA (titration-limited), Hill 1.5; legend 240 +/- 10; poly-dIdC; internal aminoC6dT in both primers; smTIRF and PIFE on DNA: 10 mM Tris-HCl pH 8.0, 130 mM NaCl, 10% glycerol, 0.005% Tween20, 1% BME (0.1 mg/ml BSA in smTIRF and LexA PIFE); nucleosome smTIRF and …
[4] = system: Gal4(1-147) (Saccharomyces cerevisiae); test: single-molecule PIFE intensity histograms (smTIRF); conditions: Hill 2; Fig 4 legend gives 5 +/- 1; koff << 5e-4 s-1; internal aminoC6dT in both primers; smTIRF and PIFE on DNA: 10 mM Tris-HCl pH 8.0, 130 mM NaCl, 10% glycerol, 0.005% Tween20, 1% BME (0.1 mg/ml BSA in smTIRF and LexA PIFE); nucleosome smTIRF and …
LexA [5] = test: ensemble PIFE; conditions: 0.2 nM DNA, non-cooperative fit; aminoC6 at 5' end; aminoC6dT in reverse primer; smTIRF and PIFE on DNA: 10 mM Tris-HCl pH 8.0, 130 mM NaCl, 10% glycerol, 0.005% Tween20, 1% BME (0.1 mg/ml BSA in smTIRF and LexA PIFE); nucleosome smTIRF and …
LexA [6] = test: single-molecule PIFE (smTIRF), koff/kon; conditions: aminoC6 at 5' end; aminoC6dT in reverse primer; smTIRF and PIFE on DNA: 10 mM Tris-HCl pH 8.0, 130 mM NaCl, 10% glycerol, 0.005% Tween20, 1% BME (0.1 mg/ml BSA in smTIRF and LexA PIFE); nucleosome smTIRF and …
[7] = system: Gal4(1-147) (Saccharomyces cerevisiae); test: single-molecule FRET (smTIRF), koff/kon; conditions: aminoC6 at 5' end; smTIRF and PIFE on DNA: 10 mM Tris-HCl pH 8.0, 130 mM NaCl, 10% glycerol, 0.005% Tween20, 1% BME (0.1 mg/ml BSA in smTIRF and LexA PIFE); nucleosome smTIRF and …

With LexA dinucleosome array the Kd (LexA [1]; internal aminoC6dT) was 40 µM.
Substance dsDNA-Gal4 has a K half [2] of 0.042 nM, a K half [3] of 0.242 nM and a K half [4] of 5 pM.
dsDNA-LexA showed a Kd (LexA [5]) of 0.13 nM and a Kd (LexA [6]) of 0.07 nM.
nucDNA-Gal4 mononucleosome gave a Kd [7] of 0.051 nM.
Work on nucDNA-LexA mononucleosome yielded a Kd (LexA [1]; aminoC6 at 5' end) of 40 µM.
